Changes are numbered by the printed parent chain.
T1: cynomolgus IL-17A (cynomolgus, UniProt Q16552 24-155 (human entry), limits assumed)
T1 construct: also called cyno IL-17A; cynoIL-17A
T1 chain: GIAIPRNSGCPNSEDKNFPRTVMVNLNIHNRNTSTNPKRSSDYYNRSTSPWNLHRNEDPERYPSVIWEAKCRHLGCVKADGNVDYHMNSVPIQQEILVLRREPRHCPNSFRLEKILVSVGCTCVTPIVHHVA

T2: human IL-17A (human, UniProt Q16552 24-155)
T2 sequence: T1 chain with A3T, S8P, S34N, V77I, K78N, R104P

T3: rhIL-17A/F heterodimer (R&D Systems) (human, UniProt Q16552 20-155; Q96PD4 31-163, limits assumed)
T3 sequence (looked up) 1: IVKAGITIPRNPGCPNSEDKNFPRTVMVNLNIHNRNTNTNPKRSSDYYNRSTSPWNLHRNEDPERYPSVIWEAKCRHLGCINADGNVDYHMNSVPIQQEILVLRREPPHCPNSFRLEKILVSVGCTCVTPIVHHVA
T3 sequence (looked up) 2: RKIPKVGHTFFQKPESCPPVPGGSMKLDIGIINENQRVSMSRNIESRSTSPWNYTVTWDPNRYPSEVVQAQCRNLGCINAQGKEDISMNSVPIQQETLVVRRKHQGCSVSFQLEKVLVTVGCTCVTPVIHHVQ

B1: mAb7146 (antibody, human IgG1, lambda, V domains shown)
VH: QVQLLESGGGLVQPGGSLRLSCAASGFTFSSYAMSWVRQAPGKGLEWVSTISMTSGFTYYADSVKGRFTISRDNSKNTLYLQMNSLRAEDTAVYYCARQLTLDVWGQGTLVTVSS
VL: QSVLTQPPSVSVAPGQTARISCSGDNLGDKYANWYQQKPGQAPVLVIYDDIDRPSGIPERFSGSNSGNTATLTISGTQAEDEADYYCGSYDFFLGLIVFGGGTKLTVLG
notes: Framework-engineered mAb; also called engineered form of MOR8160
B2: mAb6785 (antibody, human IgG1, lambda, V domains shown)
VH: B1 VH with M53L
VL: B1 VL with L96M
notes: Framework-engineered mAb; also called engineered form of MOR8302
B3: mAb1926 (antibody, human IgG1, lambda, V domains shown)
VH: B1 VH with T101M
VL: B1 VL with L96M
notes: Framework-engineered mAb; also called mAbtr1926; engineered form of MOR7700
B4: mAb5548 (antibody, human IgG1, lambda, V domains shown)
VH: B1 VH with M53L
VL: B1 VL
notes: Framework-engineered mAb
B5: mAb3077 (antibody, human IgG1, lambda, V domains shown)
VH: QVQLVQSGAEVKKPGSSVKVSCKASGGTFSSYAISWVRQAPGQGLEWMGSIIPWFGWTNYAQKFQGRVTITADESTSTAYMELSSLRSEDTAVYYCARDSEYYFDHWGQGTLVTVSS
VL: DIQMTQSPSSVSASVGDRVTITCRASQGISNWLNWYQQKPGKAPKLLIYAASSLQSGVPSRFSGSGSGTDFTLTISSLQPEDFATYYCQQYSDDPTFGQGTKVEIKG
notes: Framework-engineered mAb; also called engineered form of MOR7785
B6: mAb624 (antibody, human IgG1, lambda, V domains shown)
VH: B5 VH with S50R, N59S
VL: B5 VL
notes: Framework-engineered mAb; also called engineered form of MOR7708
B7: mAb7024 (antibody, human IgG1, lambda, V domains shown)
VH: B5 VH with W57T
VL: B5 VL
notes: Framework-engineered mAb; also called engineered form of MOR8104
B8: mAb4538 (antibody, human IgG1, lambda, V domains shown)
VH: QVQLQQSGPGLVKPSQTLSLTCAISGDSVSSSSAAWGWIRQSPSRGLEWLGRISYRSKWYNDYAVSVKSRITINPDTSKNQFSLQLNSVTPEDTAVYYCAREVDSMYYSYFDIWGQGTLVTVSS
VL: EIVLTQSPATLSLSPGERATLSCRASQNVWAFYLAWYQQKPGQAPRLLIYGASNRATGIPARFSGSGSGTDFTLTISSLEPEDFAVYYCQQYRSTLSLTFGQGTKVEIKG
notes: Framework-engineered mAb; also called engineered form of MOR7706
B9: mAb3584 (antibody, human IgG1, lambda, V domains shown)
VH: B8 VH with M106I
VL: B8 VL
notes: Framework-engineered mAb; also called engineered form of MOR8299
B10: mAb4168 (antibody, human IgG1, lambda, V domains shown)
VH: B8 VH with M106T
VL: B8 VL with Q90T, R93Y, T95S, L96P
notes: Framework-engineered mAb; also called engineered form of MOR8103
B11: mAb732 (antibody, human IgG1, lambda, V domains shown)
VH: B8 VH
VL: B8 VL with Q90T, R93Y, T95S, L96P
notes: Framework-engineered mAb; also called engineered form of MOR7775
B12: MORmAb7785 (antibody, V domains shown)
VH: B5 VH
VL: DIQMTQSPSSLSASVGDRVTITCRASQGISNWLNWYQQKPGKAPKLLIYAASSLQSGVPSRFSGSGSGTDFTLTISSLQPEDFAVYYCQQYSDDPTFGQGTKVEIK
B13: MORmAb7708 (antibody, V domains shown)
VH: B5 VH with S50R, N59S
VL: B12 VL
B14: MORmAb8105 (antibody, V domains shown)
VH: B5 VH with W57Y
VL: B12 VL
B15: MORmAb8104 (antibody, V domains shown)
VH: B5 VH with W57T
VL: B12 VL
B16: MORmAb7775 (antibody, V domains shown)
VH: B8 VH with S44G
VL: DIVLTQSPATLSLSPGERATLSCRASQNVWAFYLAWYQQKPGQAPRLLIYGASNRATGVPARFSGSGSGTDFTLTISSLEPEDFATYYCTQYYSSPSLTFGQGTKVEIK
B17: MORmAb8102 (antibody, V domains shown)
VH: B8 VH with S44G, M106L
VL: B16 VL
B18: MORmAb8103 (antibody, V domains shown)
VH: B8 VH with S44G, M106T
VL: B16 VL
B19: MORmAb8101 (antibody, V domains shown)
VH: B8 VH with S44G, M106I
VL: B16 VL
B20: MORmAb7706 (antibody, V domains shown)
VH: B8 VH with S44G
VL: B16 VL with T90Q, Y93R, S95T, P96L
B21: MORmAb7700 (antibody, V domains shown)
VH: B1 VH with L5V, T101M
VL: DIELTQPPSVSVAPGQTARISCSGDNLGDKYANWYQQKPGQAPVLVIYDDIDRPSGIPERFSGSNSGNTATLTISGTQAEDEADYYCGSYDFFLGMIVFGGGTKLTVL
B22: MORmAb8098 (antibody, V domains shown)
VH: B1 VH with L5V
VL: B21 VL
B23: MORmAb8143 (antibody, V domains shown)
VH: B1 VH with L5V, T101M
VL: B21 VL with M96Y
B24: MORmAb8142 (antibody, V domains shown)
VH: B1 VH with L5V, T101M
VL: B21 VL with M96T
B25: MORmAb8096 (antibody, V domains shown)
VH: B1 VH with L5V, M53L, T101M
VL: B21 VL
B26: MORmAb8097 (antibody, V domains shown)
VH: B1 VH with L5V, T101L
VL: B21 VL
B27: MORmAb8141 (antibody, V domains shown)
VH: B1 VH with L5V, T101M
VL: B21 VL with M96L
B28: MORmAb8095 (antibody, V domains shown)
VH: B1 VH with L5V, M53I, T101M
VL: B21 VL
B29: Fab6468, a recombinant His6-tagged Fab of mAb6785 (Fab, V domains shown)
VH: B1 VH with M53L
VL: B1 VL with L96M

Target: T1, cynomolgus IL-17A
Assay: SPR Biacore 3000, antibody captured, IL-17 in solution
Protocol: (§1) Affinity measurements using Surface Plasmon Resonance (SPR) were performed using a Biacore 3000 optical biosensor (Biacore).

Kd | Stoichiometry | Binder
50 pM | 2 dimers per anti-IL-17 | B1
148 pM | 2.2 dimers per anti-IL-17 | B2
18 pM | 2.3 dimers per anti-IL-17 | B3
225 pM | 1.9 dimers per anti-IL-17 | B4

Target: T1, cynomolgus IL-17A
Assay: cell-based or functional assay

IL-6 production (NHDF), IC50 | IL-8 production (NHDF), IC50 | Binder
113 pM | 374 pM | B5
– | 192 pM | B6
999 pM | 2980 pM | B7
847 pM | 1750 pM | B8
823 pM | 1250 pM | B9
2170 pM | 3300 pM | B10
2020 pM | 12500 pM | B11
139 pM | 140 pM | B1
193 pM | 563 pM | B2
67 pM | – | B3

Target: T1, cynomolgus IL-17A
Assay: competition ELISA: mAb against biotinylated cyno IL-17A binding to coated IL-17RA-Fc
Protocol: (§2) Clear maxisorp plates were coated with 100 μl/well of 2.5 μg/ml human IL-17RA-Fc (R&D Systems, Minneapolis, Minn.) in 0.1 M sodium carbonate-bicarbonate buffer, pH 9.4 and incubated overnight at 4° C. […] The signal was detected with 100 μl of 1:10,000 dilution of 1 mg/ml SA-HRP (Jackson Immunoresearch, West Grove, Pa.) for 20 minutes at room temperature (RT) followed by 100 μl/well of OPD substrate (Sigma-Aldrich Corp., St. Louis, Mo.).

IC50 | Binder
54 pM | B5
51 pM | B6
117 pM | B7
636 pM | B8
489 pM | B9
764 pM | B10
463 pM | B11
67 pM | B1
76 pM | B2
53 pM | B3

Target: T1, cynomolgus IL-17A
Assay: as above
Remark: another data set of the same source
Protocol: as §2

IC50 | Binder
270 pM | B12
289 pM | B13
498 pM | B14
306 pM | B15
541 pM | B16
838 pM | B17
491 pM | B18
845 pM | B19
961 pM | B20
236 pM | B21
289 pM | B22
252 pM | B23
139 pM | B24
58 pM | B25
300 pM | B26
1440 pM | B27
198 pM | B28

Target: T2, human IL-17A
Assay: binding ELISA, IL-17A protein coated on micro-titer plate, serial dilutions of labeled mAb1926, 37 C 2 h
Description: Human, mouse and rat IL-17A proteins were coated on the micro-titer plates.

binding result | Binder
binds | B3

Target: T3, rhIL-17A/F heterodimer (R&D Systems)
Assay: cell-based or functional assay

IL-17A/F heterodimer-induced IL-6 production by NHDF, EC50 | Binder
2000 pM | B2

Target: T1, cynomolgus IL-17A
Assay: SPR Biacore 3000, Fab captured, IL-17 in solution
Protocol: as §1

Kd | Binder
205 pM | B29
